Measured values published in patent US20110195027A1 (KOREA RESEARCH INSTITUTE OF BIOSCIENCE AND BIOTECHNOLOGY, published 2011).
Where a chain is given by its changes, count along the chain named.

T1: CD9-ECL2 mutant M4 (human, with rat residues, UniProt P21926 112-195)
T1 construct: also called mutation 4; not shown: Myc and 8x His tag of the pYK His only vector
T1 chain: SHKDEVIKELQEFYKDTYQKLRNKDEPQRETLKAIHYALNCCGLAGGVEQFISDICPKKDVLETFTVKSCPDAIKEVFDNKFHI

T2: p-Myc-His CD9-ECL2 wild type (human)
T2 chain: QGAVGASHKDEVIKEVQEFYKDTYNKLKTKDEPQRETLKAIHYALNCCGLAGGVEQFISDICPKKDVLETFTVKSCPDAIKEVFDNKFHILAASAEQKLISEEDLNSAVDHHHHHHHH

T3: CD9-ECL2 mutant M1 (human, with rat residues, UniProt P21926 112-195)
T3 construct: also called mutation 1; not shown: Myc and 8x His tag of the pYK His only vector
T3 chain: T1 chain with L10V, Q19N, R22K, N23T, K75D, D79H, N80S

B1: CD9 8A scFv monoclonal phage antibody (scFv, V domains shown)
VH: QVQLVQSGAEVKKPGASVKLSCKASGYTFSSYWMHWVRQAPGQRLEWMGEINPGNGHTNYNEKFKSRVTITVGKSASTAYMELSSLRSEDTAVYYCAREGVSAAGGLDHWGQGTQITVSS
VL: DIQMTQSPSSLSVSTGARVTITCRASQGISNYLAWYQQKPGKAPKLLIYAASTLQSGVPSRFSGSGSGTDFTLTISSLQPEDFATYYCQQLNSYPLTFGGGTKVEIK
notes: also called 8A3
B2: CD9 12F scFv monoclonal phage antibody (scFv, V domains shown)
VH: QVQLVQSGAEVKKPGASVKLSCKASGYTFSSYWMHWVRQAPGQRLEWMGEINPGNGHTNYNEKFKSRVTITVDKSASTAYMELSSLRSEDTAVYYCARELEEGAFDIWGQGTMVTVSS
VL: B1 VL with S12P, V13A, T15V, A17D, N31S, L91Y, N92D, Y94V
notes: also called 12F3
B3: CD9 3F3 scFv monoclonal phage antibody (scFv, V domains shown, not shown: small tags and cut ends)
VH: QMQLVQSGAEVKKPGASVKLSCKASGYTFSSYWMHWVRQAPGQRLEWMGEINPGNGHTNYNEKFKSRVTITVDKSASTAYMELSSLRSEDTAVYYCGQDNSPPRIWGQGTLITVSS
VL: QSALTQPASVSGSPGQSITISCTGTSSDVGGYNHVSWYQQHPGKAPKLLIYDVSNRPSGVSGRFSGSKSGNTASLTISGLQAEDEANYYCGSYTSSSTFEVFGTGTKVTVL
B4: CD9 11G scFv monoclonal phage antibody (scFv, V domains shown)
VH: B3 VH with M2V, F29S, I112V
VL: DIQMTQSPSTLSASVGDRVTITCRASQTIGNLAWFQQKPGKAPKLLIYKASSLESGVPSRFSGSGSGTEFTLTISSLQPDDFATYYCQQYSDYWTFGQGTKVEIK
notes: also called 11G3
B5: 10E4 whole IgG (antibody, V domains shown)
VH: MAQVQLVQSGGGLVQPGRSLRLSCAASGFTFDDFAMHWVRQAPGKGLEWVAGISWNSGDIRYADSVRGRFTISRDNAKNSLFLQMNSLRAEDTAVYYCARSPVGTTYFDYWGQGALITVSS
VL: DIQMTQSPSSLSASVGDRVTITCRASQGISSYLAWYQQKPGKAPKLLIYAASTLQSEVPSRFSGSGSGTDFTLTISSLQPEDFATYYCQQLNIFPLTFGGTKVDIKR
notes: Whole IgG made from the 10E4 phage clone in pNATAB H and pNATAB L vectors; the heavy chain PCR primer starts at QVQLVQS; also called 10E4 human antibody; anti-CD9(10E4) IgG
B6: CD9 5G4 scFv monoclonal phage antibody (scFv, V domains shown)
VH: QVQLVSSGAEVKKPGASVKLSCKASGYTFSSYWMHWVRQAPGQRLEWMGEINPGNGHTNYNEKFKSRVTITVDKSASTAYMELSSLRSEDTAVYYCAREDDIEDAFDFWGQGTMVTVSS
VL: DIQMTQSPSSVSASVGDRVTITCRASQSISSWLAWYQQKPGKAPKLLIYGASNLQSGVPSRFSGSGSGTDFTLTISSLHPEDFATYFCHKTDSFPLTFGGGTKVEIK

Key:
[1] = molecular target: T4, CD9-ECL2(CD9 extracellular domain 2)-Fc antigen (human); experiment: phage ELISA
T4 construct: also called CD9-ECL2-Fc; CD9-EC2-Fc
Method: (§1) A 96-well immuno-plate was coated with CD9-EC2-Fc antigen (0.1 μg/well) at 4° C. for 16 hours, followed by blocking with skim milk dissolved in PBS (4%). Each well of the 96-well immuno-plate was washed with 0.2 ml of PBS-tween20 (0.05%). 100 ul of the 3rd-4th panning monoclonal scFV-phage was added to each well, followed by reaction at room temperature for 2 hours. Each well was washed four times with 0.2 ml of PBS-tween20 (0.05%). The secondary antibody anti-M13-HRP was diluted at 1:2000, followed by reaction at room temperature for 1 hour. The plate was washed with 0.2 ml of PBS-tween20 (0.05%), followed by color development. OD₄₉₀ was measured.
Target sequence in this assay (chain, as listed by the source limits assumed): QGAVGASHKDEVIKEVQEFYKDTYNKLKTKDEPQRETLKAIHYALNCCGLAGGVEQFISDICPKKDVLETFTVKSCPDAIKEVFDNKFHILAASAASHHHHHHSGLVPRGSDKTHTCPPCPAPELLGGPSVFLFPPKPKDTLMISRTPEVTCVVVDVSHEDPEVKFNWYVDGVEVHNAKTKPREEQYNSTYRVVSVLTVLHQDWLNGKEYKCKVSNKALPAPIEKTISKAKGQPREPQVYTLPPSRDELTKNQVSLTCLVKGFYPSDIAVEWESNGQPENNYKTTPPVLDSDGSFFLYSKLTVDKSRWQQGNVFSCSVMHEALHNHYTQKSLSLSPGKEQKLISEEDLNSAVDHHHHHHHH

Fc = molecular target: T5, Fc; experiment: phage ELISA
T5 construct: Control antigen of the phage ELISA
Method: as §1

[2] = molecular target: T4, CD9-ECL2(CD9 extracellular domain 2)-Fc …; experiment: phage ELISA; CD9 OD/a-myc OD
Method: as §1
Target sequence in this assay (chain, as listed by the source limits assumed): as above

[3] = molecular target: T4, CD9-ECL2(CD9 extracellular domain 2)-Fc …; experiment: phage ELISA; CD9 OD/a-myc OD (repeats Table 3)
Method: as §1
Target sequence in this assay (chain, as listed by the source limits assumed): as above

CD9-ECL2 mutant M4 = molecular target: T1, CD9-ECL2 mutant M4; experiment: ELISA: antibody coated, supernatant, anti-His-HRP
Method: (§2) Each supernatant was loaded by 24 ul at 100 V for 2 hours, and then transferred to NC membrane (Millipore Cat. No. HATF00010) at 85V for 2 hours. The membrane finished with transfer was blocked by using blocking buffer (4% skim milk in TEST) at room temperature for 1 hour. A-His-HRP (Sigma, Cat. No. A7058) was diluted with blocking buffer (4% skim milk in TBST) at 1:4000 and binding was induced at room temperature for 1 hour. The membrane was washed with TBST 5 times every 10 minutes, followed by development (Intron, Cat. No. 12145). Expression of each mutant was confirmed by Western blotting (FIG. 15). Based on that, epitopes of ALB6 and 10E4 were confirmed by ELISA. A 96-well immuno-plate (NUNC) was coated with coating buffer comprising ALB6 and 10E4 (100 ng/100 ul/well each) at 4° C. for 16 hours, followed by blocking with 4% PBST (skim milk dissolved in 1× PBS) for 2 hours. Each well of the 96-well immuno-plate was washed three times with 0.2 ml of PBST (PBS-tween20 (0.05%)). From the supernatants obtained on day 5 confirmed to contain a large number of mutants confirmed by Western blotting, wild type, M1 and M4 supernatants were selected. 100 ul of the selected supernatant was added to each well of the plate, followed by reaction for 2 hours. The plate was washed again. The secondary antibody anti-His-HRP (Sigma A7058) was diluted at 1:1000, followed by reaction at room temperature for 30 minutes. Washing was performed three times by the same manner as described above. OPD tablet (Sigma 8787-TAB) was added to PC buffer [C₆H₈O₇H₂O (Sigma, C0706) 5.1 g, Na₂HPO₄ (Sigma, 57907 7.3 g)] to make substrate solution, which was added to each well by 100 ul/well, followed by color development for 10 minutes. Color development was terminated by adding 2 M H₂SO₄ solution. Then, OD₄₉₀ was measured by using ELISA reader (Molecular Device).

[4] = molecular target: T2, p-Myc-His CD9-ECL2 wild type; experiment: ELISA: antibody coated, supernatant, anti-His-HRP
Method: as §2

CD9-ECL2 mutant M1 = molecular target: T3, CD9-ECL2 mutant M1; experiment: ELISA: antibody coated, supernatant, anti-His-HRP
Method: as §2

[5] = molecular target: T4, CD9-ECL2(CD9 extracellular domain 2)-Fc …; experiment: phage ELISA; CD9 OD/a-myc OD; remark: listed apart in the source
[6] = molecular target: T4, CD9-ECL2(CD9 extracellular domain 2)-Fc …; experiment: phage ELISA; CD9 OD/a-myc OD (repeats Table 2)

Binder	OD490 [1]	OD490 (Fc)	Ratio [2]	Ratio [3]	OD490 (CD9-ECL2 mutant M4)	OD490 [4]	OD490 (CD9-ECL2 mutant M1)	Ratio [5]	Ratio [6]
B1	1.61	0.088	0.73	0.73					
B2	1.16	0.124	0.669	0.668					
B3	0.961	0.0394	0.918	0.918					
B4	2.24	0.0441	1.23	1.23					
B5					0.398	0.375	0.084		
B6								1.04	1.04
